Assay results reported in the domain aggregation screens of Martell et al. (2025).

Assay: soluble fraction after stress (log2 fold change); higher = more stays soluble; pooled small domains, quantitative proteomics
Conditions: stress: pH 4
Method in brief: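 Custom libraries of small protein domains were pooled and measured with high-throughput quantitative proteomics after pH 4 stress. The read-out is the fold change in the amount of each domain that stays soluble after the acid stress, taken as a measure of aggregation propensity. Fold changes are on a log2 scale, and higher values mean more of the domain stayed soluble.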

HMELGRQDSAQLGRWAAGILAKNGKKITGRTMEFFLSRTGDDMENISSELEKLISYTLGREVITEEDIEAV
soluble fraction (log2): -0.757

HMAVNVNGIHLSSQQHEALVSIWRTGRMPEPHAGQKPWLWIQALRRRGLVSGNALRLTDKGRHIVQLLQ
soluble fraction (log2): 0.226

HMEGRTVMATTAVNVRSGPGTSYKILGVLYPGHTAQQIGNTRYGWAQVTWKGHTAYIAARYLRDS
soluble fraction (log2): 0.301

HMSDTSAIEKIIDEVLSDESSQKAINDIKNGNEKVYGFLVGQVMKKSQGKANPGLVQKMLREKIAK
soluble fraction (log2): 0.22

HMARAGKLAQDMAVWTKETMLNTERNFISLRHFKRELLRRTLAPGESEQTVRAMEEAGYIQVKDGLVFPIK
soluble fraction (log2): -0.511

HMHLLGASIAAYRKKAGMTQEDLGRALFVSGQAVSRWERGGTPDSDMLPKIADVLGISLDTLFGRS
soluble fraction (log2): -0.269

HMTEKEEERTEDLNYYRLNLISMLKSSYPEYLDDEEFISNRSQEAAEAFEDAVRSGSNYLDASAESNRTLY
soluble fraction (log2): -0.717

HMDTNEPFAQLQLRFTDPIQYDYEVIRPVVLFSQSVTDRSDETEMPRTTVREKARQFVTEGMLGLVDK
soluble fraction (log2): -0.216

HMGSLAVVPSLTGKTLQEAQSKAADYGLALEIEGYVASTAVDYGRIVSQSPDAGFSVKSGSSVKVSVSAG
soluble fraction (log2): ≥ 0.43

HMNKEHINLDSSKFLSLLNKTKISMSNDETRHYLNGIYIHPTVSNKSSYLTGVATDSHRLSSSSIPVD
soluble fraction (log2): -0.311

HMRTSPGADYEKTYYTIQSGDNLGAIAEKMGVSVADLKDWNDISGTKIYAGKKLVIYVKKGST
soluble fraction (log2): -0.209

HMRVGADLTQRERELLALMAQGMSNQEIAKRLEIAVPTVKFHITNILDKLQVGNRTEAVIAALEHKLVP
soluble fraction (log2): -0.767

HMIQLTDAEFNELVTYIKKNYGINLIKKRLLIEARMYSVLAKHGFTSFTEYINLIKRDPAELNTMLNKLTT
soluble fraction (log2): 0.126

HMILNNAKINTELNSLAEFTQRSLDSNTSEIGFYDYKKISYIASFATMKTTNWNVIIRAPINEFMGTVN
soluble fraction (log2): 0.203

HMAQLSDDEQAIIDTITRRGDATMSELIASVNVSTPRLMSMLIDMEFRSLITALPGGRYQIRLIN
soluble fraction (log2): -0.464

HMSGKWSILILHALEQGPKRFNVLHRELSGITQATLTKQLRQLEEDGIILRKAYPQIPPKVEYQLTEIG
soluble fraction (log2): 0.112

HMSARKVTVALHTRDHADRLRRLLKHEGVSADLVAARLSHKLTDHPIEVRVNEDDIPAVLRIIENIEIF
soluble fraction (log2): -0.707

HMTKYKEIVDQLRTNIYEGVFPALSKLPEQTALAKRFQTSRMTIQKALNQLKQEGLISTKRGHGTYVNSAT
soluble fraction (log2): 0.021

HMRPSGEAVNAAYRLLKGANPSGNEGDLIQRAQEVAAILPKLNRSSAAAFAKDAKANGLTQAETIALWKGS
soluble fraction (log2): 0.163

HMEPDDLTVIKGIGPVAAKDLNEQGIITFAQLAKLSDKDVAKIDEHMPFSADQIKDWREQAKELAK
soluble fraction (log2): 0.0725

HMANEGWDIYKLDIRNHKQPNGEYYSEKEIQSTINNTFGKGSFNVDWKKYEKDKEYREKTNYYYFQAKYFV
soluble fraction (log2): -0.24

HMAEQLGNSRTANMVMLGAMIERTGVISIDSAMEALKATFGPKKEHLLPINRQAMEAGAAAARAV
soluble fraction (log2): -0.517

HMSRDYKTELQERLQVNGPVKIEYQVIAEDESKPSFKVQLLVNDKKISEGQGRNKKAAEQQAAQAAL
soluble fraction (log2): 0.0788

HMENKVLVITEEEKGKRLDVYLAAALEVSRSYAQQLIQGEDVVVNDKQVKANYRLSEGDVVQVQLD
soluble fraction (log2): -0.218

HMTDWNTVEKETLSAIQKVLSGQASWIDLSPADHSIRHMQHEMVQQAGLISQSYGKEPMRRIRIYQNP
soluble fraction (log2): -0.036

HMVDSTDLIPLLIKVSREKQGNKKLNWGEWLKIPENIYLKQINENIARKVFEDTNDLIDEAVNYINRKRRN
soluble fraction (log2): -0.558

HMDRVMPVPEALIGMRFDIAVSRMLGVSRSQAAAYIDRGQVSIAGRGSQRSAQKSEKLVQGDSIEVAIA
soluble fraction (log2): 0.186

HMLAVEKIEFVGNERIAAADLESALSALYDRPMTTISDDEIAKLLSGFSLIETFTSQAEPPHTLRVNIRE
soluble fraction (log2): -0.452

HMETGNEDYRVGKELAYDGNYKAATIYLMKSIKDDPNNPDAFNMLGFSHRKLGNNDEAYIYYNKALEL
soluble fraction (log2): -0.722

HMDRSAQVLFLEHARSRLPQRIQWAEELAELLSIGIDSAYRRIRGETALTFNEAVSVSRKYDISLDYLFK
soluble fraction (log2): -1.4

HMKTGIGIVEANGGLRLRSQASTSSDVLSTAHNGDNVVVIRQVGNWYLVNYNLKIGYMHSDYITFKE
soluble fraction (log2): -1.3

HMYEVVPNMKGLSYEQAATALRTAGLEPELSDSIYDDKTRPGTVLEQSPRANTKVKPGRTVYLTVNAF
soluble fraction (log2): 0.105

HMKTTKRERARAKLIQLLENEDRPAKEIYAGLGDIGVGSRTVEKVKKELQVTTYRSGGSWYWSLPKP
soluble fraction (log2): -0.147

HMDIFGREAEVEQILQEVRFGDDPHYRLSIGILPVTGHAGAGKTALVRFIFHHEVARAEFTVRMWVHV
soluble fraction (log2): -0.998

HMPLITDIKIQVKNTEKVSLFVDGKYSFSLTISQLAEHKILKTNQEISAKQVAEFKKLSNLTNLYIRIVG
soluble fraction (log2): -0.296

HMSMSVLFSELDQKDAGVIVEKLKERKIPYELQSGGSAIMVPANVLHETRLQLAAEGLPQSS
soluble fraction (log2): 0.0876

HMQARDQNVDEGKALLEKEFSRLALENLDRDKLANAVNYPTRDDMYAAIGAGDLRVGQVLHQAQQLF
soluble fraction (log2): -0.323

HMIGPYAAAKLMTNKDFVKWLSGGVEKSVFNPNSFGQHIRRLVQISEVNPDIRDEINAVVQGLTQ
soluble fraction (log2): -0.00821
